B1: ABCF3 (protein, UniProt Q9NUQ8 2-709, looked up)
ATP-binding cassette …: ATCAEILRSEFPEIDGQVFDYVTGVLHSGSADFESVDDLVEAVGELLQEVSGDSKDDAGIRAVCQRMYNTLRLAEPQSQGNSQVLLDAPIQLSKITENYDCGTKLPGLLKREQSSTVNAKKLEKAEARLKAKQEKRSEKDTLKTSNPLVLEEASASQAGSRKESRLESSGKNKSYDVRIENFDVSFGDRVLLAGADVNLAWGRRYGLVGRNGLGKTTLLKMLATRSLRVPAHISLLHVEQEVAGDDTPALQSVLESDSVREDLLRRERELTAQIAAGRAEGSEAAELAEIYAKLEEIEADKAPARASVILAGLGFTPKMQQQPTREFSGGWRMRLALARALFARPDLLLLDEPTNMLDVRAILWLENYLQTWPSTILVVSHDRNFLNAIATDIIHLHSQRLDGYRGDFETFIKSKQERLLNQQREYEAQQQYRQHIQVFIDRFRYNANRASQVQSKLKMLEKLPELKPVDKESEVVMKFPDGFEKFSPPILQLDEVDFYYDPKHVIFSRLSVSADLESRICVVGENGAGKSTMLKLLLGDLAPVRGIRHAHRNLKIGYFSQHHVEQLDLNVSAVELLARKFPGRPEEEYRHQLGRYGISGELAMRPLASLSGGQKSRVAFAQMTMPCPNFYILDEPTNHLDMETIEALGRALNNFRGGVILVSHDERFIRLVCRELWVCEGGGVTRVEGGFDQYRALLQEQFRREGFL
B2: IPO7 (protein, UniProt O95373 1-1038, looked up)
Importin-7: MDPNTIIEALRGTMDPALREAAERQLNEAHKSLNFVSTLLQITMSEQLDLPVRQAGVIYLKNMITQYWPDRETAPGDISPYTIPEEDRHCIRENIVEAIIHSPELIRVQLTTCIHHIIKHDYPSRWTAIVDKIGFYLQSDNSACWLGILLCLYQLVKNYEYKKPEERSPLVAAMQHFLPVLKDRFIQLLSDQSDQSVLIQKQIFKIFYALVQYTLPLELINQQNLTEWIEILKTVVNRDVPNETLQVEEDDRPELPWWKCKKWALHILARLFERYGSPGNVSKEYNEFAEVFLKAFAVGVQQVLLKVLYQYKEKQYMAPRVLQQTLNYINQGVSHALTWKNLKPHIQGIIQDVIFPLMCYTDADEELWQEDPYEYIRMKFDVFEDFISPTTAAQTLLFTACSKRKEVLQKTMGFCYQILTEPNADPRKKDGALHMIGSLAEILLKKKIYKDQMEYMLQNHVFPLFSSELGYMRARACWVLHYFCEVKFKSDQNLQTALELTRRCLIDDREMPVKVEAAIALQVLISNQEKAKEYITPFIRPVMQALLHIIRETENDDLTNVIQKMICEYSEEVTPIAVEMTQHLAMTFNQVIQTGPDEEGSDDKAVTAMGILNTIDTLLSVVEDHKEITQQLEGICLQVIGTVLQQHVLEFYEEIFSLAHSLTCQQVSPQMWQLLPLVFEVFQQDGFDYFTDMMPLLHNYVTVDTDTLLSDTKYLEMIYSMCKKVLTGVAGEDAECHAAKLLEVIILQCKGRGIDQCIPLFVEAALERLTREVKTSELRTMCLQVAIAALYYNPHLLLNTLENLRFPNNVEPVTNHFITQWLNDVDCFLGLHDRKMCVLGLCALIDMEQIPQVLNQVSGQILPAFILLFNGLKRAYACHAEHENDSDDDDEAEDDDETEELGSDEDDIDEDGQEYLEILAKQAGEDGDDEDWEEDDAEETALEGYSTIIDDEDNPVDEYQIFKAIFQTIQNRNPVWYQALTHGLNEEQRKQLQDIATLADQRRAAHESKMIEKHGGYKFSAPVVPSSFNFGGPAPGMN
B3: HNRNPUL1 (protein, UniProt Q9BUJ2 1-856, looked up)
Heterogeneous nuclear …: MDVRRLKVNELREELQRRGLDTRGLKAELAERLQAALEAEEPDDERELDADDEPGRPGHINEEVETEGGSELEGTAQPPPPGLQPHAEPGGYSGPDGHYAMDNITRQNQFYDTQVIKQENESGYERRPLEMEQQQAYRPEMKTEMKQGAPTSFLPPEASQLKPDRQQFQSRKRPYEENRGRGYFEHREDRRGRSPQPPAEEDEDDFDDTLVAIDTYNCDLHFKVARDRSSGYPLTIEGFAYLWSGARASYGVRRGRVCFEMKINEEISVKHLPSTEPDPHVVRIGWSLDSCSTQLGEEPFSYGYGGTGKKSTNSRFENYGDKFAENDVIGCFADFECGNDVELSFTKNGKWMGIAFRIQKEALGGQALYPHVLVKNCAVEFNFGQRAEPYCSVLPGFTFIQHLPLSERIRGTVGPKSKAECEILMMVGLPAAGKTTWAIKHAASNPSKKYNILGTNAIMDKMRVMGLRRQRNYAGRWDVLIQQATQCLNRLIQIAARKKRNYILDQTNVYGSAQRRKMRPFEGFQRKAIVICPTDEDLKDRTIKRTDEEGKDVPDHAVLEMKANFTLPDVGDFLDEVLFIELQREEADKLVRQYNEEGRKAGPPPEKRFDNRGGGGFRGRGGGGGFQRYENRGPPGGNRGGFQNRGGGSGGGGNYRGGFNRSGGGGYSQNRWGNNNRDNNNSNNRGSYNRAPQQQPPPQQPPPPQPPPQQPPPPPSYSPARNPPGASTYNKNSNIPGSSANTSTPTVSSYSPPQPSYSQPPYNQGGYSQGYTAPPPPPPPPPAYNYGSYGGYNPAPYTPPPPPTAQTYPQPSYNQYQQYAQQWNQYYQNQGQWPPYYGNYDYGSYSGNTQGGTSTQ
B4: OSBPL3 (protein, UniProt Q9H4L5 1-887, looked up)
Oxysterol-binding …: MMSDEKNLGVSQKLVSPSRSTSSCSSKQGSRQDSWEVVEGLRGEMNYTQEPPVQKGFLLKKRKWPLKGWHKRFFYLDKGILKYAKSQTDIEREKLHGCIDVGLSVMSVKKSSKCIDLDTEEHIYHLKVKSEEVFDEWVSKLRHHRMYRQNEIAMFPHEVNHFFSGSTITDSSSGVFDSISSRKRSSISKQNLFQTGSNVSFSCGGETRVPLWLQSSEDMEKCSKDLAHCHAYLVEMSQLLQSMDVLHRTYSAPAINAIQGGSFESPKKEKRSHRRWRSRAIGKDAKGTLQVPKPFSGPVRLHSSNPNLSTLDFGEEKNYSDGSETSSEFSKMQEDLCHIAHKVYFTLRSAFNIMSAEREKLKQLMEQDASSSPSAQVIGLKNALSSALAQNTDLKERLRRIHAESLLLDSPAVAKSGDNLAEENSRDENRALVHQLSNESRLSITDSLSEFFDAQEVLLSPSSSENEISDDDSYVSDISDNLSLDNLSNDLDNERQTLGPVLDSGREAKSRRRTCLPAPCPSSSNISLWNILRNNIGKDLSKVAMPVELNEPLNTLQRLCEELEYSELLDKAAQIPSPLERMVYVAAFAISAYASSYYRAGSKPFNPVLGETYECIREDKGFQFFSEQVSHHPPISACHAESRNFVFWQDVRWKNKFWGKSMEIVPIGTTHVTLPVFGDHFEWNKVTSCIHNILSGQRWIEHYGEIVIKNLHDDSCYCKVNFIKAKYWSTNAHEIEGTVFDRSGKAVHRLFGKWHESIYCGGGSSSACVWRANPMPKGYEQYYSFTQFALELNEMDPSSKSLLPPTDTRFRPDQRFLEEGNLEEAEIQKQRIEQLQRERRRVLEENHVEHQPRFFRKSDDDSWVSNGTYLELRKDLGFSKLDHPVLW
B5: IARS (protein, UniProt P41252 1-1262, looked up)
Isoleucine--tRNA ligase, …: MLQQVPENINFPAEEEKILEFWTEFNCFQECLKQSKHKPKFTFYDGPPFATGLPHYGHILAGTIKDIVTRYAHQSGFHVDRRFGWDCHGLPVEYEIDKTLGIRGPEDVAKMGITEYNNQCRAIVMRYSAEWKSTVSRLGRWIDFDNDYKTLYPQFMESVWWVFKQLYDKGLVYRGVKVMPFSTACNTPLSNFESHQNYKDVQDPSVFVTFPLEEDETVSLVAWTTTPWTLPSNLAVCVNPEMQYVKIKDVARGRLLILMEARLSALYKLESDYEILERFPGAYLKGKKYRPLFDYFLKCKENGAFTVLVDNYVKEEEGTGVVHQAPYFGAEDYRVCMDFNIIRKDSLPVCPVDASGCFTTEVTDFAGQYVKDADKSIIRTLKEQGRLLVATTFTHSYPFCWRSDTPLIYKAVPSWFVRVENMVDQLLRNNDLCYWVPELVREKRFGNWLKDARDWTISRNRYWGTPIPLWVSDDFEEVVCIGSVAELEELSGAKISDLHRESVDHLTIPSRCGKGSLHRISEVFDCWFESGSMPYAQVHYPFENKREFEDAFPADFIAEGIDQTRGWFYTLLVLATALFGQPPFKNVIVNGLVLASDGQKMSKRKKNYPDPVSIIQKYGADALRLYLINSPVVRAENLRFKEEGVRDVLKDVLLPWYNAYRFLIQNVLRLQKEEEIEFLYNENTVRESPNITDRWILSFMQSLIGFFETEMAAYRLYTVVPRLVKFVDILTNWYVRMNRRRLKGENGMEDCVMALETLFSVLLSLCRLMAPYTPFLTELMYQNLKVLIDPVSVQDKDTLSIHYLMLPRVREELIDKKTESAVSQMQSVIELGRVIRDRKTIPIKYPLKEIVVIHQDPEALKDIKSLEKYIIEELNVRKVTLSTDKNKYGIRLRAEPDHMVLGKRLKGAFKAVMTSIKQLSSEELEQFQKTGTIVVEGHELHDEDIRLMYTFDQATGGTAQFEAHSDAQALVLLDVTPDQSMVDEGMAREVINRIQKLRKKCNLVPTDEITVYYKAKSEGTYLNSVIESHTEFIFTTIKAPLKPYPVSPSDKVLIQEKTQLKGSELEITLTRGSSLPGPACAYVNLNICANGSEQGGVLLLENPKGDNRLDLLKLKSVVTSIFGVKNTELAVFHDETEIQNQTDLLSLSGKTLCVTAGSAPSLINSSSTLLCQYINLQLLNAKPQECLMGTVGTLLLENPLGQNGLTHQGLLYEAAKVFGLRSRKLKLFLNETQTQEITEDIPVKTLNMKTVYVSVLPTTADF
B6: PWP2 (protein, UniProt Q15269 1-919, looked up)
Periodic tryptophan protein 2 …: MKFAYRFSNLLGTVYRRGNLNFTCDGNSVISPVGNRVTVFDLKNNKSDTLPLATRYNVKCVGLSPDGRLAIIVDEGGDALLVSLVCRSVLHHFHFKGSVHSVSFSPDGRKFVVTKGNIAQMYHAPGKKREFNAFVLDKTYFGPYDETTCIDWTDDSRCFVVGSKDMSTWVFGAERWDNLIYYALGGHKDAIVACFFESNSLDLYSLSQDGVLCMWQCDTPPEGLRLKPPAGWKADLLQREEEEEEEEDQEGDRETTIRGKATPAEEEKTGKVKYSRLAKYFFNKEGDFNNLTAAAFHKKSHLLVTGFASGIFHLHELPEFNLIHSLSISDQSIASVAINSSGDWIAFGCSGLGQLLVWEWQSESYVLKQQGHFNSMVALAYSPDGQYIVTGGDDGKVKVWNTLSGFCFVTFTEHSSGVTGVTFTATGYVVVTSSMDGTVRAFDLHRYRNFRTFTSPRPTQFSCVAVDASGEIVSAGAQDSFEIFVWSMQTGRLLDVLSGHEGPISGLCFNPMKSVLASASWDKTVRLWDMFDSWRTKETLALTSDALAVTFRPDGAELAVATLNSQITFWDPENAVQTGSIEGRHDLKTGRKELDKITAKHAAKGKAFTALCYSADGHSILAGGMSKFVCIYHVREQILMKRFEISCNLSLDAMEEFLNRRKMTEFGNLALIDQDAGQEDGVAIPLPGVRKGDMSSRHFKPEIRVTSLRFSPTGRCWAATTTEGLLIYSLDTRVLFDPFELDTSVTPGRVREALRQQDFTRAILMALRLNESKLVQEALEAVPRGEIEVVTSSLPELYVEKVLEFLASSFEVSRHLEFYLLWTHKLLMLHGQKLKSRAGTLLPVIQFLQKSIQRHLDDLSKLCSWNHYNMQYALAVSKQRGTKRSLDPLGSEEEAEASEDDSLHLLGGGGRDSEEEMLA

In the first experiment the test system is GFP-14-3-3β and its binding proteins. Nature of the experiment: GFP-14-3-3β co-IP with LC-MS/MS label-free quantification, untreated versus PP1c-treated. Also on record: species or system human. The conditions noted are these: GFP-14-3-3β co-IP LC-MS/MS; PP1 vs untreated; student's t-test; label-free quantification, 3 replicates each.
On to B1, for which the “Difference (log2), PP1 vs untreated” value is recorded as -0.3214 log2.

Take B2: the “Difference (log2), PP1 vs untreated” value is recorded as -0.3489 log2.

Turning to B3, the “Difference (log2), PP1 vs untreated” value was -0.3133 log2.

Take B4: the “Difference (log2), PP1 vs untreated” value is listed as -0.2879 log2.

As to B5, the “Difference (log2), PP1 vs untreated” value was -0.336 log2.

Regarding B6, the “Difference (log2), PP1 vs untreated” value is -0.2929 log2.

The test system of the next experiment is GFP-14-3-3β. Nature of the experiment: GFP-14-3-3β co-IP with LC-MS/MS, untreated GFP-14-3-3β versus GFP control (14-3-3 interactome). In kind it is binding, human. The conditions noted are these: GFP-14-3-3β co-IP LC-MS/MS; untreated vs GFP; student's t-test; label-free quantification, 3 replicates each.
Turning to B1, the “Difference (log2), untreated vs GFP” value stood at 1.23 log2.

In the case of B2, the “Difference (log2), untreated vs GFP” value came out at 0.3162 log2.

Turning to B3, the “Difference (log2), untreated vs GFP” value was determined as 0.2278 log2.

Take B4: the “Difference (log2), untreated vs GFP” value is 1.582 log2.

On to B5, for which the “Difference (log2), untreated vs GFP” value is -0.1582 log2.

B6: the “Difference (log2), untreated vs GFP” value is 0.9621 log2.

The values above are taken from article PMC7367873, “Dissecting the sequence determinants for dephosphorylation by the catalytic subunits of phosphatases PP1 and PP2A” (Nature Communications, 2020).
